Legend:
[1] = target: T1, Human thymic stromal lymphopoietin (TSLP) (human, UniProt Q969D9 29-159); experiment: cell-based or functional assay
natural TSLP = experiment: cell-based or functional assay
Cynomolgus monkey TSLP = Cynomolgus monkey TSLP (cynomolgus monkey, UniProt A0A7N9CAT7 29-159); experiment: cell-based or functional assay
[2] = target: T1, Human thymic stromal lymphopoietin …; experiment: SPR, Biacore T200, 25 C, antibody captured on Protein A chip, human TSLP as analyte, 1:1 model, mean of three tests
Method: Biacore T200 was used to detect the affinity of QX008N (HZD8G2-57) binding to human TSLP. All processes were performed at 25° C. A commercial Protein A chip was used to immobilize an appropriate amount of antibody through the capture method so that Rmax was around 50RU and the capture flow rate was 10 μl/min. The antigen was diluted by gradient, the flow rate of the instrument was switch to 30 μl/min, and the antigen flowed through the reference channel and the fixed antibody channel in order from low to high concentration, with the antigen flowing through the buffer as a negative control. After each binding and dissociation was completed, the chip was regenerated with glycine at pH 1.5. The 1:1 binding model in Kinetics option was selected for fitting using the analysis software that comes with the instrument, and the binding rate constant kₐ, the dissociation rate constant kd and the equilibrium dissociation constant KD value of the antibody were calculated.
The detection method for known antibodies was the same as that for QX008N.

Chain of Cynomolgus monkey TSLP (A0A7N9CAT7 entry or part of it): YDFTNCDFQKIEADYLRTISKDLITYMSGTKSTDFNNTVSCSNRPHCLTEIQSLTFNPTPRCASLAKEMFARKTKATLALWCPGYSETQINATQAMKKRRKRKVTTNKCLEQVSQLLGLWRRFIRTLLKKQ

B1: QX008N (HZD8G2-57) (antibody, human IgG1, kappa, V domains shown)
VH: EVQLVESGGGLVQPGGSLRLSCAASGFSLSSYYMSWVRQAPGKGLEWVGFISYGGSAYHATWAQGRFTISKDNSKNTLYLQMNSLRAEDTAVYYCAREFRSMTYGAEWGIWGQGTLVTVSS
VL: AYQMTQSPSSVSASVGDRVTITCQASESIYDTLAWYQQKPGKAPKLLIYSASSLASGVPSRFSGSGSGTDFTLTISSLQPEDFATYYCQQGYTMPDVDKNPFGGGTKVEIKR
notes: Humanized rabbit antibody from clone 8G2; Expressed in ExpiCHO-S cells and purified with Protein A; also called humanized 8G2
[1]
  IC50 of inhibiting STAT5 phosphorylation in SW756-STAT5-Luciferase reporter gene cells induced by human TSLP: 0.837 ng/mL
  IC50 of inhibiting the release of TARC (CCL17) from PBMCs induced by human TSLP: 77.1 ng/mL
  IC50 of inhibiting the release of TARC (CCL17) from human whole blood induced by human TSLP: 0.839 ng/mL
Natural TSLP
  IC50 of inhibiting STAT5 phosphorylation in SW756-STAT5-Luciferase reporter gene cells induced by natural TSLP: 0.462 ng/mL
Cynomolgus monkey TSLP
  IC50 of inhibiting STAT5 phosphorylation in SW756-STAT5-Luciferase reporter gene cells induced by Cynomolgus monkey TSLP: 0.889 ng/mL
[2]
  Kd: 0.0175 nM
  koff: 2.99e-05 s⁻¹
  kon: 1.74e+06 M⁻¹ s⁻¹

B2: Tezepelumab (antibody, V domains shown)
VH: QMQLVESGGGVVQPGRSLRLSCAASGFTFRTYGMHWVRQAPGKGLEWVAVIWYDGSNKHYADSVKGRFTITRDNSKNTLNLQMNSLRAEDTAVYYCARAPQWELVHEAFDIWGQGTMVTVSS
VL: SYVLTQPPSVSVAPGQTARITCGGNNLGSKSVHWYQQKPGQAPVLVVYDDSDRPSWIPERFSGSNSGNTATLTISRGEAGDEADYYCQVWDSSSDHVVFGGGTKLTVLG
Cynomolgus monkey TSLP
  IC50 of inhibiting STAT5 phosphorylation in SW756-STAT5-Luciferase reporter gene cells induced by Cynomolgus monkey TSLP: 1.88 ng/mL
